According to paper PMC10508222, “Elucidation of the stereocontrol mechanisms of the chemical and biosynthetic intramolecular Diels–Alder cycloaddition for the formation of bioactive decalins” (RSC Advances, 2023):

B1: Phm7 (Pyrenochaetopsis sp.) (protein)
chain: MSEPTSSSSLDITSNCIIETPLQPSDFLPKSANLFPKFPERISVDSWELWEFDTFDTNGSVAFGCSLYRDARGVEQGGFHAEVNALWPDGTHWGETLYFAVSEVVENSDGTTGGKWLSKDGGSITFHIASDYTAAALDFNVPGKVSGTMELRNHANVSPTSNLPASDAEAQLCPGVYYTFPMGPVATSVTATFSSVGANGESRELFISSGYGGMVRGWSARPWPTFMNDAYYVVAQVGPYMLQILRTLGSVFVQHKPFAVARLYLDGSLVSAANTVVGDELTAHADDVKGDAVRLTKVQPDEKSQGLSGKFRDGNVGYVLEFAKKDSEHGWTFQISHKRAVWSEPTSAPGPDGTGKSGWIEAISGGAKGENYEGHGFGGQLQIPVP

Legend:
Experiment in all cases: purified protein, by the assay type
Settings in all cases: pH 7.5; 25.0 °C
[1] = test system: C/C=C/C=C/C=C/C[C@H](C)CC/C=C(\C)C(O)=C1C(=O)C(CO)N(C)C1=O
[2] = test system: C/C=C/C=C/C=C/C[C@@H](C)CC/C=C(\C)C(O)=C1C(=O)C(CO)N(C)C1=O
[3] = substrate: C/C=C/C=C/C=C/C[C@@H](C)CC/C=C(\C)C(O)=C1C(=O)C(CO)N(C)C1=O; remark: listed apart in the source

| Molecule | Km [1] | kcat [1] | kcat/Km [1] | Km [2] | kcat [2] | kcat/Km [2] | Km [3] | kcat [3] | kcat/Km [3] |
| --- | --- | --- | --- | --- | --- | --- | --- | --- | --- |
| Fsa2 (Fusarium sp. FN080326) | 18.07 ± 4.21 µM | 84.2 ± 6.58 s⁻¹ | 4.67e+06 M⁻¹ s⁻¹ | 25.07 ± 2.98 µM | 1.01 ± 0.048 s⁻¹ | 40200 M⁻¹ s⁻¹ | – | – | – |
| B1 | – | – | – | – | – | – | 38.21 ± 8.23 µM | 1.98 s⁻¹ | 51800 M⁻¹ s⁻¹ |
